# According to patent publication US9073976B2, “ND2 peptides and methods of treating neurological disease” (NoNO Inc., priority 2010, dated 2015):
# “Also recorded” adds a separate entry of the source. No end group written: not given here. *: point of attachment. Myristoyl = CCCCCCCCCCCCCC(=O)*
# B1: ND2.1: GST-fusion protein of ND2 sub fragment AA239-321 (protein)
# chain: WLTPLIPSTLLSLGGLPPLTGFLPKWAIIEEFTKNNSLIIPTIMATITLLNLYFYLRLIYSTSITLLPMSNNVKMKWQFEHTK
# modifications: left off: a dimerising Fc or GST
# Key:
# [1] = target: T1, binding of biotinylated Src40-49 to ND2 310-321 (Homo sapiens, UniProt P03891+P12931); assay: Competition ELISA, binding of biotinylated Src40-49 to coated ND2 310-321; conditions: FIG. 5D, FIG. 7
# T1 construct: 7; NVKMKWQFEHTK; KPASADGHRG
# Description: Competition ELISAs were also performed. […] In a similar manner, ND2 constructs bearing amino acid sequences from the 300-321 region are able to act as inhibitors of the interaction between ND2 and Src.
# ND2 310-321 = target: T2, ND2 310-321 (Homo sapiens, UniProt P03891); assay: Dot blot of Src fragments probed with biotinylated ND2 310-321; format: binding; conditions: FIG. 5A
# T2 construct: 7; NVKMKWQFEHTK
# Description: (§1) Src40-49-Tat indicate a fusion peptide in which the human HIV-1 tat protein transduction domain [[…]] […] (SEQ ID NO:10). […] The peptides were plated at a concentration of ˜5 uM.
# Src 40-49 [2] = target: T3, Src 40-49 (Homo sapiens, UniProt P12931); assay: Dot blot of ND2 constructs binding Src 40-49; conditions: FIG. 4A
# T3 construct: KPASADGHRG
# Description: (§2) We next examined the ability of the ND2 constructs to bind to a shorter version of the Src binding domain—Src 40-49 (FIGS. 4A, B). ND2 310-321, ND2 307-318, and ND2 310-318 were the top binders of Src 40-49 by dot blot analysis (FIG. 4A).
# Src 40-58 [3] = target: T4, Src 40-58 (Homo sapiens, UniProt P12931, A55V); assay: Dot blot of GST-ND2 fragments probed with biotinylated Src 40-58; format: binding; conditions: GST-fusion proteins spotted 1-10 ug, biotinylated peptide ~15 ug/ml, 2 hours
# T4 construct: KPASADGHRG P SAAFVPAA
# Description: GST-fusion proteins were designed using different fragments of ND2 and expressed and purified using standard protocols. These purified proteins were spotted onto membranes for probing with biotinylated Src 40-58 peptide or a scrambled control peptide (sSrc 40-58). In general, 1-10 ug of peptide or recombinant protein was spotted onto nitrocellulose and dried overnight. Membranes were blocked with 5% milk for 1 h at room temperature, then incubated with biotinylated peptides (˜15 ug/ml) for 2 hours the washed using standard wash buffers. Bound probe was detected using a short incubation with streptavidin conjugated to horseradish peroxidase (SA-HRP) and standard detection reagents, predominantly chemiluminescence kits. […] Further GST-constructs were made to narrow the core Src binding regions (FIG. 2A). Dot blots were made with these constructs and tested for their ability to capture biotinylated Src 40-58 (FIG. 2B).
# (§3) Further GST constructs were made to identify the amino acid sequences in ND2.1.4 responsible for binding to Src 40-58 (FIG. 3A). Although these sequences are minimally responsible for binding, sequences corresponding to ND2 these sequences as well as those flanking them could be used for inhibition of the Src-ND2 interaction. […] As before, interactions with all of the fragments were confirmed in an ELISA assay (FIG. 3C), and the top binders were ND2 310-321, ND2 289-309, ND2 299-318, ND2 307-321 and full length ND2. […] All fragments tested were able to bind Src40-58 more strongly than the negative control peptide sSrc 40-58.
# Src 40-58 [4] = target: T4, Src 40-58; assay: ELISA of coated ND2 constructs with biotin-Src 40-58; format: binding; conditions: biotin-Src 40-58 at 6 uM
# Description: GST-ND2, GST-ND2.1 or GST-ND2.1.4 were coated onto ELISA wells by incubating at the indicated concentration under standard conditions. Wells were blocked using 5% milk, and either biotin-Src 40-58 (FIG. 2C top) or biotin-sSrc 40-58 (bottom) were incubated at 6 uM.
# as §3
# Tat-ND2 310-321 = target: T5, Tat-ND2 310-321 (Homo sapiens, UniProt P03891); assay: ELISA plate coated with Tat-ND2 310-321, binding of biotinylated Src peptides; conditions: FIG. 5C
# T5 construct: 10; Tat-ND2 310-321; […]
# Description: as §1
# [5] = Arterial blood pressure after rapid high-dose intravenous bolus; conditions: ~25 mg/kg bolus injection into the tail vein
# Description: Rats with surgically implanted devices to measure arterial pressure were dosed with ˜25 mg/kg of the respective peptides as a bolus injection into the tail vein at 10 minutes post monitoring.
# [6] = tested on: PACAP-enhanced NMDA-evoked currents in CA1 neurons; assay: Patch clamp of PACAP-enhanced NMDA-evoked currents in isolated CA1 neurons; format: cell-based, rat; conditions: PACAP 1 nM in patch pipette, peptide 6 mM, 25 to 30 minutes after PACAP
# Description: Pituitary Adenylate Cyclase-activating Polypeptide (PACAP) selectively increases NMDA receptor mediated responses in rat neurons, and it is thought that this peptide is involved in the regulation of synaptic plasticity as well as both long term potentiation and depression. To examine the effect of ND2 310-321 and Src 40-49 on PACAP-enhanced NMDA-evoked currents, isolated CA1 neurons were subjected to a series of patch clamp experiments in the presence or absence of these peptides. […] ND2 310-321 can prevent PACAP-induced potentiation. Similar experiments were also performed using the Src-selective inhibitory peptide, Src(40-58) (14 mM), or the truncated peptide, Src(40-49) (6 mM). The responses prior to application of PACAP were normalized the responses at 25 to 30 minutes following application of PACAP. The bar graph indicates three groups of recordings from neurons and indicated the relative change in peak NMDAR currents under the three conditions. ND2 310-321, but not Src40-49, inhibits PACAP-enhanced NMDA-evoked currents. Thus, ND2 310-321 can be used to block PACAP enhanced NMDA-evoked signaling and can therefore be used in many neurological diseases and disorders associated with impaired with long term potentiation (e.g., aging, Alzheimer's, neurodegenerative diseases and neuronal disorders affect memory).
# rats subjected to 3PVO = assay: Three pial vessel occlusion (3PVO) model of stroke, infarct volume; format: in vivo, rat
# Description: The efficacy of ND2 inhibitors in the treatment of stroke was examined using the three pial vessel occlusion (3PVO) model of stroke. This is a permanent model of stroke that creates small but consistent infarcts at 24 hours.
# Male Sprague Dawley rats (n=10 in each group) were surgically subjected to permanent occlusion of the pial vessels. One hour post-surgery, animals were given an intravenous injection of Saline, Tat-NR2B9c (Aarts et al, Science, 2002), Src 40-49-Tat or Tat-ND2 310-321 and allowed to further recover in their cages. 24 hours after surgery, brains were harvested, sliced and incubated with TTC to visualize the areas of infarction. The infarct volume of each animal was determined, as well as the average volumes for each group of ten.
# Both peptides were myristoylated via an amide bond to the alpha-amino group of the N-terminal amino acid of the peptide.
# Male Sprague Dawley rats (n=10 in each group) weighing between 230 and 290 g were used for this study. Experiments were performed on fasted rats (Free overnight access to water but not food). For permanent three pial vessel occlusion (3PVO) was performed as described previously (Forder J et al., 2005, supra). In brief, rats were anesthetized with a 0.5 ml/kg intramuscular injection of ketamine (100 mg/kg), acepromazine (2 mg/kg), and xylazine (5 mg/kg), supplemented with one-third of the initial dose as required. An anal temperature probe was inserted, and the animal was placed on a heating pad maintained at 37° C. The skull was exposed via a midline incision and scraped free of tissue. Using a dissecting microscope and a pneumatic dental drill, a 6- to 8-mm cranial window was made over the right somatosensory cortex (2 mm caudal and 5 mm lateral to bregma) by drilling a rectangle through the skull and lifting off the piece of skull while keeping the dura intact. The 3 pial arteriolar middle cerebral artery branches around the barrel cortex were selected and electrically cauterized through the dura. After the cauterizations, the scalp was sutured. […]
# Src 40-49 [7] = target: T3, Src 40-49; assay: ELISA of ND2 constructs binding Src 40-49; conditions: FIG. 4B
# Description: as §2
# [8] = target: T6, ND2, Src, NMDAR subunits, and PSD95 in hippocampal neurons (Rattus norvegicus, UniProt P11662+Q9WUD9); assay: Immunocytochemistry colocalization in 14DIV hippocampal neurons; format: cell-based; conditions: 1 uM peptide for 1 h, day 14 neurons
# T6 construct: endogenous in cells; host or cells: primary hippocampal neurons from E17/E18 Wistar rats, 14 DIV
# Description: A series of experiments was performed to examine the localization of ND2, Src, NMDAR subunits, and PSD95 in hippocampal neurons by immunocytochemistry in the presence of Tat, Tat-ND2 310-321, or Src 40-49-Tat. Briefly, hippocampal neurons were isolated from embryonic day #17/E18 Wistar rats, and cultured in neurobasal media containing coverslips with B27 and glutamax. Cells were then treated for 1 hr with luM peptide before fixing by standard methods. Proteins were visualized using specific antibodies and secondary antibodies coupled to fluorescent molecules. Colocalization of fluorescence was calculated by merging the images in Photoshop and calculating the % colocalized between pairs as the total colocalized fluorescence clusters divided by the total number of clusters (e.g., % colocalized ND2 with Src=(total colocalized)/(total ND2 clusters); % colocalized Src with ND2=(total colocalized)/(total Src clusters)).
# Hippocampal neurons cultured on coverslips were treated with 1 uM of Src 40-49-Tat, Tat-ND2 310-321 or Tat for 1 h at the day 14. Then neurons were incubated in 4% paraformaldehyde and 4% sucrose in phosphate-buffered saline (PBS) for 10 minutes followed by 5 minutes […] at room temperature (RT). Cells were permeabilized with 0.25% Triton X-100 in PBS for 5 minutes and by treatment with 5% donkey serum in PBS for 30 minutes at RT. The cultures were incubated with a mixture of the primary antibodies, raised in various species, in 0.25% Triton X-100 PBS for 2 hours at RT, washed, and incubated for 1 hour at RT with a mixture of species-specific secondary antibodies all raised in donkey and conjugated to either Texas Red, or FITC fluorophores (1:200 dilution in 0.25% Triton X-100 PBS). The coverslips were washed with PBS and mounted using ProLong Gold antifade reagent (Invitrogen). Images were collected using a 60× pan-fluor objective on a Nikon Eclipse TE 200 microscope. The images were analyzed with PhotoShop 7 (Adobe, San Jose, Calif.). Brightness and contrast were adjusted, sharpened using the unsharpen mask tool, and the images were merged for color colocalization.
# For quantification of the colocalization, the maximum intensities of the fluorophore channels were normalized and the background fluorescence of each channel seen in the dendrites was subtracted, the color images were merged. Two clusters in two different channels were considered colocalizing when at least 66% of the surface of one clusters in one of the two channels overlapped with a clusters in the other channel. For each combination of antibodies, three independent immunofluorescence experiments were done. Each measurement was taken from a 50-m-long dendritic segment (with an average width of 2 m). Colocalization was expressed as the percent of the total clusters analyzed.
molecule,measurement,setting,value
YGRKKRRQRRRKPASADGHRG [Tat-Src40-49],inhibition of binding of biotinylated Src40-49 to ND2 310-321 (competition ELISA),[1],inhibited
same,binding of biotinylated ND2 310-321 (dot blot),ND2 310-321,bound ND2 310-321
MSNNVKMKWQFE [ND2 307-318],binding of Src 40-49 (dot blot),Src 40-49 [2],top binders; also recorded: strong binding
ITLLPMSNNVKMKWQFEHTK [ND2 302-321],binding of biotinylated Src 40-58 (dot blot),Src 40-58 [3],binding was seen
"NLYFYLRLIYSTSITLLPMSNNVKMKWQFEHTK (not fully specified) [ND2.1.4, GST-fusion protein of ND2 fragment AA 289-321]",binding of biotin-Src 40-58 (ELISA),Src 40-58 [4],concentration-dependent manner
same,binding of biotinylated Src 40-58 (dot blot),Src 40-58 [3],most effective sub fragment for binding Src 40-58
same,binding of biotinylated Src 40-58 (dot blot),Src 40-58 [3]; listed as ND 2.1.4,better than ND2.1.3
"Bio-sSrc 40-49: biotinylated scrambled control peptide (GAAKRPSDGH; also: biotinylated, position not given here)",binding to coated Tat-ND2 310-321 (ELISA),Tat-ND2 310-321,no binding was seen
MSNNVKMKWQFEHTK [ND2 307-321],binding of biotin-Src 40-58 (ELISA),Src 40-58 [4],top binders
same,binding of biotinylated Src 40-58 (dot blot),Src 40-58 [3],binding was seen
YGRKKRRQRRRNVKMKWQFEHTK [Tat-ND2 310-321],mean arterial blood pressure after bolus,[5],about one half of normal
"bio-Src 40-49: biotinylated Src 40-49 peptide (KPASADGHRG; also: biotinylated, position not given here)",binding to coated Tat-ND2 310-321 (ELISA),Tat-ND2 310-321,able to bind in a concentration dependent manner
KPASADGHRG [Src40-49],effect on PACAP-enhanced NMDA-evoked currents,[6]; listed as Src 40-49,does not
same,binding of biotinylated ND2 310-321 (dot blot),ND2 310-321,bound ND2 310-321
NLYFYLRLIYSTSITLLPMSN [ND2 289-309],binding of biotin-Src 40-58 (ELISA),Src 40-58 [4],top binders
same,binding of biotinylated Src 40-58 (dot blot),Src 40-58 [3],binding was seen
myristoyl- MSNNVKMKWQFEHTK (Myristoyl-MSNNVKMKWQFEHTK) [Myr2-ND2],"protection against damage from the stroke, second experiment (FIG. 22)","rats subjected to 3PVO; given intravenously 1 hour after onset of stroke, relative to Tat-ND2",equivalent or superior protection
STSITLLPMSNNVKMKWQFE [ND2 299-318],binding of biotin-Src 40-58 (ELISA),Src 40-58 [4],top binders
same,binding of biotinylated Src 40-58 (dot blot),Src 40-58 [3],binding was seen
YGRKKRRQRRRKLSSIESDV [Tat-NR2B9c],mean arterial blood pressure after bolus,[5],about one half of normal
same,decline in infarct volume,"rats subjected to 3PVO; 3 nmol/g intravenous one hour post-surgery, 24 hours after surgery, n=10",approximately 40%
NVKMKWQFEHTK [ND2 310-321],binding of Src 40-49 (ELISA),Src 40-49 [7],strongest binding
same,effect on PACAP-enhanced NMDA-evoked currents,[6],inhibits
same,binding of Src 40-49 (dot blot),Src 40-49 [2],top binders; also recorded: strong binding
same,binding of biotin-Src 40-58 (ELISA),Src 40-58 [4],top binders
same,binding of biotinylated Src 40-58 (dot blot),Src 40-58 [3],binding with high relative affinity
YGRKKRRQRRR [Tat],colocalization of Src and ND2,[8],does not
NVKMKWQFE [ND2 310-318],binding of Src 40-49 (dot blot),Src 40-49 [2],top binders; also recorded: strong binding
B1,binding of biotin-Src 40-58 (ELISA),Src 40-58 [4],concentration-dependent manner
same,binding of biotinylated Src 40-58 (dot blot),Src 40-58 [3],can also bind Src 40-58; also recorded: better than ND2.1.3
